Laboratory results reported in the supplement of paper PMC9112550, “Optimization of the antimicrobial peptide Bac7 by deep mutational scanning” (BMC Biology, 2022).

test system: Escherichia coli TOP10; assay: shrunken log2 fold change of peptide-encoding DNA abundance (4.5 h post-induction vs induction); higher = less antimicrobial activity (less host growth inhibition); details: time post-induction: 4.5 h; library: site-saturation at positions 5, 18, 19, 20
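Note: peptides expressed intracellularly from a pBAD plasmid library in pooled LB shake-flask culture, induced with 0.3% L-arabinose, DNA abundance read by NGS, three biological replicates, DESeq2 with apeglm shrinkage.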

Row | Sequence | shrunken log2 fold change
1 | RRIRARPPRLPRPRPRPSEWPRP | 0.0632
2 | RRIRHRPPRLPRPRPRPNMLPRP | -0.387
3 | RRIRQRPPRLPRPRPRPIPHPRP | 0.021
4 | RRIRNRPPRLPRPRPRPQTEPRP | -0.219
5 | RRIRPRPPRLPRPRPRPALMPRP | 0.31
6 | RRIRIRPPRLPRPRPRPEVIPRP | -0.0583
7 | RRIRDRPPRLPRPRPRPPGGPRP | 1.07
8 | RRIRDRPPRLPRPRPRPMRVPRP | 0.304
9 | RRIRDRPPRLPRPRPRPKEVPRP | 0.174
10 | RRIRYRPPRLPRPRPRPHVLPRP | -0.0311
11 | RRIRFRPPRLPRPRPRPPVTPRP | -0.132
12 | RRIRNRPPRLPRPRPRPWHQPRP | -0.094
13 | RRIRERPPRLPRPRPRPNQNPRP | -0.188
14 | RRIRTRPPRLPRPRPRPSLMPRP | 0.0356
